Experimental data: patent US20250051443A1 (NATIONAL RESEARCH COUNCIL OF CANADA, published 2025)
Residue numbers refer to the chain shown, from its start.

B1: F332-7E3 (antibody, mouse IgG2a, V domains shown)
VH: QVQLQQPGAELGKPGTSVKLSCKASGYTFTSYWIHWVKQRPGQGLEWIGNINPNSGSINYNEKFKSKATLTVDKSSSTAYMQLSTLTSEDFAVYYCTRDTSGQYYFDYWGQGTTLTVSS
VL: DIVMSQSPSSLAVSAGEKVTMSCKSSQSLLNSRTRKNYLAWYQQKPGQSPKLLIYWASTRESGVPDRFTGSGSGTDFTLTISSVQAEDLAVYYCKQSYHLRTFGGGTKLEIK
notes: also called F332-7E3-2
B2: F332-10B6 (antibody, mouse IgG2a, V domains shown)
VH: QVQLQQPGAELGKPGTSVNLSCKASGYTFTDYWIHWVKQRPGQGLEWIGNINPNSGDTNYNENFKTKATLTVDRSSSTAYMQLSSLTSEDSAVYYCTRDISGQYYFDFWGQGTTLTVSS
VL: B1 VL with K95I, H99N
notes: also called F332-10B6-2; F332-12B5-1
B3: F332-5D4 (antibody, mouse IgG2b, V domains shown)
VH: B1 VH with I34M, S55G, S57D, I58S, K74M, F91S, T100I, Y108F, T114S, S118F
VL: B1 VL with V3L, K18Q, Y55F, E61K, D76Y, S82N, A86T, K95T, H99S
notes: also called F332-5D4-2; F332-5D4 (5F8)
B4: F332-13B4 (antibody, mouse IgG2a, V domains shown)
VH: QVQLQQSGPELVKPGASVKISCKASGYSFTNSYVHWVKQTPGQGLEWIGWIYPGSTNIKYNEKFKGKATLTADTSSSTVYMQLSSLTSEDSAVYFCARDGSYFFDYWGQGTTLTVSS
VL: B1 VL with S22T, H99I
notes: also called F332-13B4-2
B5: F332-7B7 (antibody, mouse IgG2a, V domains shown)
VH: B1 VH with A9T, S31N, I34M, I58T, E62Q, V72L, L83F, F91S, T100S
VL: B1 VL with K95I, Y98F
notes: also called F332-7B7-2
B6: F332-12F6 (antibody, mouse IgG2a, V domains shown)
VH: B1 VH with I58T, F91S, T100I
VL: B1 VL with N37S, K95I, H99N
notes: also called F332-12F6-2
B7: F332-8F7 (antibody, mouse IgG2a, V domains shown)
VH: B1 VH with I58T, S66N, Y80S, F91S, T100I
VL: B1 VL with A15T, E17G, K18E, K95I, H99S, E110G
notes: also called F332-8F7-3

molecular target: T1, human CD3 (human, UniProt P07766 23-207; P09693 23-182; P04234 22-171); assay: flow competition on Jurkat, 100 nM unlabeled mAb; competitor AF488-SK7 1.5 nM
T1 construct: whole, on cells; also called CD3 on Jurkat T cells; CD3 on primary human T cells
Protocol: (§1) In order to evaluate whether anti-CD3 monoclonal antibodies bind to the same epitope region, flow cytometry competition experiments on Jurkat cells were performed.
(§2) To that effect, a fixed concentration of the indicated AF488-labeled mAb were incubated with 100 nM of unlabeled monoclonal antibodies to assess if their binding capacity was impaired in presence of unlabeled mAbs. […] The AF488-OKT3 mIgG2b was labeled in-house using AlexaFluor488 protein labelling kit (Invitrogen #A10235) following manufacturer's instruction. The free dye removal step was done using Zeba™ Spin Desalting Columns, 7K MWCO (Thermo Scientific #89890). The final product was analyzed by UPLC-SEC to ensure the integrity of the labeled mAb.

| % residual fluorescence of labeled mAb [%] | Molecule |
| --- | --- |
| 45 | B1 |
| 56 | B2 |
| 49 | B3 |
| 43 | B4 |
| 53 | B5 |
| 42 | B6 |
| 39 | B7 |

molecular target: T1, human CD3; assay: flow competition on Jurkat, 100 nM unlabeled mAb; competitor AF488-UCHT1 5 nM
Protocol: as §1, §2

| % residual fluorescence of labeled mAb [%] | Molecule |
| --- | --- |
| 67 | B1 |
| 80 | B2 |
| 73 | B3 |
| 72 | B4 |
| 79 | B5 |
| 63 | B6 |
| 59 | B7 |

molecular target: T1, human CD3; assay: cell-based or functional assay

| % max ref. OKT3 (dTomato activation) [%] | EC50 of dTomato induction (CD69 promoter), Jurkat-CD69-dTomato cells, 24 h [µg/mL] | Molecule |
| --- | --- | --- |
| 75 | 0.24 | B1 |
| 60 | 0.23 | B2 |
| 109 | 0.27 | B3 |
| 90 | 0.47 | B4 |
| 97 | 0.25 | B5 |
| 87 | 0.25 | B6 |
| 80 | 0.22 | B7 |

molecular target: T1, human CD3; assay: flow cytometry, hybridoma supernatant on CD3+ Jurkat cells
Protocol: Cells were stained with either negative control mouse IgG (Jackson Immunoresearch cat #115-000-003) or an anti-GFP 3E6 mAb supernatant or tested hybridoma supernatant. Specific binding was reflected by the increase in the mean fluorescent intensity of antibody binding to Jurkat T-cells (FIGS. 1A to 1F, grey histograms) compared to the Jurkat CD3 negative cell line J.RT3-T3.5 (FIGS. 1A to 1F, open histograms). AF488 labeled positive control mAb OKT3 was also analyzed.

| MFI [MFI] | Molecule |
| --- | --- |
| 354 | B1 |
| 143 | B2 |
| 326 | B3 |
| 373 | B4 |
| 302 | B5 |
| 369 | B6 |
| 312 | B7 |

molecular target: T1, human CD3; assay: apparent KD (KDapp), flow cytometry titration on Jurkat cells
Protocol: Unless otherwise stated, all media are kept are 4° C. and all incubations are performed on wet ice. Exponentially growing Jurkat cells were centrifuged and resuspended in complete medium at a cell density of 2×10⁶ cells/mL. Fifty μL/well of cells were distributed in a polypropylene v-bottom 96 well plate and serial 1/3 dilutions of purified mAbs starting at 300 nM were added and incubated for 2 hours. Cells were washed twice by centrifugation and further incubated with a FITC labeled F(ab′)2 goat anti-mouse antibody (Fc specific, #115-096-071, Jackson Immunoresearch, Cedarlane, Burlington, ON) for an hour. Cells were washed and re-suspended in medium containing Propidium iodide to exclude dead cells from analysis. Samples were filtered through a 60 μm nylon mesh filter plate (Millipore, Ireland) to remove cell aggregates. Flow cytometry analyses were performed on 2,000 viable single-cells events gated on forward scattering, side scattering parameters and propidium iodide dye exclusion using a BD-LSRFortessa flow cytometer (Becton-Dickinson Biosciences, CA, USA) and a standard filter set using BD FACSDiva™ acquisition software, according to manufacturer's instructions.

| Kd [pM] | Molecule |
| --- | --- |
| 1300 | B1 |
| 3700 | B2 |
| 700 | B3 |
| 600 | B4 |
| 600 | B5 |
| 600 | B6 |
| 800 | B7 |

molecular target: T1, human CD3; assay: flow competition on Jurkat, 100 nM unlabeled mAb; competitor AF488-SP34.2 20 nM
Protocol: as §1, §2

| % residual fluorescence of labeled mAb [%] | Molecule |
| --- | --- |
| 12 | B1 |
| 32 | B2 |
| 10 | B3 |
| 8 | B4 |
| 9 | B5 |
| 7 | B6 |
| 10 | B7 |

molecular target: T1, human CD3; assay: apparent KD (KDapp), flow cytometry titration on purified primary human T cells
Protocol: The binding characteristics of the purified anti-CD3 mAbs were assessed in titration studies on purified human primary T cells from different donor samples. Fresh ex vivo peripheral blood mononuclear cells (PBMCs) were obtained via density centrifugation over Ficoll-Paque using standard procedures and untouched T cell fractions obtained from PBMCs by negative pan-T cell selection and magnetic cell sorting. Starting from 300 nM concentrations of the anti-CD3 mAbs, eight point binding curves were generated from the resultant mean fluorescence intensity (MFI) values obtained through detection of labelled secondary antibody to bound CD3 in flow cytometry experiments (FIGS. 3A and 3B). Both commercial mouse anti-human CD3 mAb (OKT-3; Biolegend) and an in house generated IgG1 version of OKT-3 were employed as positive controls together with a non-specific mouse IgG serving as a negative binding control. Following curve fit analysis using one-site specific binding with Hill slope, the KDapp (concentration needed to achieve a half-maximum binding at equilibrium) for each mAb was calculated (Table 2).
Eight point binding titrations were performed with the anti-CD3 mAbs starting at either 300 or 100 nM on freshly purified human T cells obtained through negative selection from PBMC fractions. Briefly, 1×10⁵ human T cells (50 μL of staining buffer (SB; PBS/1% BSA/0.01% NaN3) were incubated with graded dilutions of the anti-CD3 mAbs in SB ([…]) for 2 hours at 4° C. in 96 w U-bottom plates, followed by plate washing with SB ([…]). Cell pellets were resuspended with 25 μL of a 0.25 mg/mL solution of the goat (Fab′)₂ anti-mouse IgG (H+L)− APC secondary antibody in SB, incubated at 4° C. (30 min.), washed 1× with SB, and resuspended for flow analysis. Recombinant anti-human OKT-3 IgG2b (in house produced) and non-specific mIgG were employed similarly as positive and negative controls respectively. 10K live events were acquired on a BD LSRFortessa flow analyzer and mean fluorescence intensities (MFI) calculated after subtraction of secondary antibody alone values. Using GraphPad Prism software, the data were analyzed using a one site specific binding with Hill slope non-linear regression model to calculate KDapp and BMax values (See Table 2).

| Kd [pM] | Molecule |
| --- | --- |
| 220 | B1 |
| 30100 | B2 |
| 610 | B3 |
| 50 | B4 |
| 230 | B5 |
| 200 | B6 |
| 260 | B7 |

molecular target: T2, Cynomolgus CD3 (Cynomolgus, UniProt Q95LI5 22-198; Q95LI7 23-181; Q95LI8 22-171); assay: apparent KD (KDapp), flow cytometry titration on cynomolgus HSC-F T cell line
T2 construct: whole, on cells; also called CD3 on Cynomolgus PBMCs; CD3 on HSC-F Cynomolgus T cell line
T2 sequence (Q95LI5 22-198, chain 1 of 3): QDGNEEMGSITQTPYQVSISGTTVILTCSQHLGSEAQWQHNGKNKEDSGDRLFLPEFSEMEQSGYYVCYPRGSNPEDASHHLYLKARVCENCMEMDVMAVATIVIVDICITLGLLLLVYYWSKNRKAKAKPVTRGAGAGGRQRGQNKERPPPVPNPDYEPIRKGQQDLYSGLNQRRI
T2 sequence (Q95LI7 23-181, chain 2 of 3): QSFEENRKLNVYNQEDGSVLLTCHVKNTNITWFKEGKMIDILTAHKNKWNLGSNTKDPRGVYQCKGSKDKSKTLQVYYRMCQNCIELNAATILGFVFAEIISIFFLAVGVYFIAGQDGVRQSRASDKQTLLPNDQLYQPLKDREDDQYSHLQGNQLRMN
T2 sequence (Q95LI8 22-171, chain 3 of 3): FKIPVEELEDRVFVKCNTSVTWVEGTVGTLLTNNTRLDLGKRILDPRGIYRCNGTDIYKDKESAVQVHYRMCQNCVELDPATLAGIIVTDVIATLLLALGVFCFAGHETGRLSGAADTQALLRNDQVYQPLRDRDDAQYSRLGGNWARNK
Protocol: To characterize potential cross-reactivity of the anti-human CD3 mAbs to NHP T cells, dose response flow cytometry titration studies were performed on both freshly obtained Cynomolgus PBMCs (Comparative Medicine and Animal Resources Centre—McGill University) or the Cynomolgus derived T cell line, HSC-F (Non-Human Primate Reagent Resource—NIH). Binding studies on fresh Cynomolgus PBMCs was performed on a subset of anti-CD3 mAbs (FIG. 4) whereas the Herpesvirus saimiri immortalized Cynomolgus T cell line HSC-F was employed for further evaluations (FIGS. 5A to 5C). KDapp values were calculated using a non-linear regression model of one-site binding with Hill slope (GraphPad Prism) and tabulated (Table 3b). Similar KDapp values for anti-CD3 mAb 1E2 obtained from binding to fresh Cynomolgus PBMCs (KDapp=0.28 nM) or the HSC-F T cell line (KDapp=0.39 nM) indicated the HSC-F cell line was a suitable surrogate for ex vivo NHP T cells.
HSC-F T cells obtained from the Non-Human Primate Reagent Resource (NIH) were maintained in culture in RPMI media containing 20% FBS and 40 IU/mL recombinant human IL2. 100K HSC-F cells in logarithmic cell growth were treated with graded doses of the anti-CD3 mAbs starting at 100 nM in staining buffer (SB; PBS/1% BSA/0.01% NaN3) for 2 hours at 4° C. in 96 w V-bottom plates. Following plate washing with SB, the cell pellets were resuspended with 25 μL of goat (Fab′)₂ anti-mouse IgG (H+L)− APC secondary antibody (final 5 μg/mL), incubated for 30 minutes at 4° C., followed by flow cytometry analysis. The commercial NHP cross-reactive SP34.2 anti-CD3 mAb (BD Biosciences), recombinant anti-human OKT-3 IgG2b (in house produced) and non-specific mIgG were employed as controls. 20K live events were acquired on a BD LSRFortessa flow analyzer and mean fluorescence intensities (MFI) calculated after subtraction of secondary antibody alone values. Using GraphPad Prism software, the data were analyzed using a one site specific binding with Hill slope non-linear regression model to calculate KDapp and BMax values (See Table 2).

| Kd [pM] | Molecule |
| --- | --- |
| 310 | B1 |
| 2000 | B2 |
| 640 | B3 |
| 640 | B4 |
| 280 | B5 |
| 610 | B6 |
| 970 | B7 |

molecular target: T1, human CD3; assay: flow cytometry, AF488-labeled mAb on CD3+ Jurkat cells

| MFI [MFI] | Molecule |
| --- | --- |
| 265 | OKT-3 AF488 (antibody) |

molecular target: T1, human CD3; assay: flow competition on Jurkat, 100 nM unlabeled mAb; competitor AF488-OKT-3 mIgG2b 1.5 nM
Protocol: as §1, §2

| % residual fluorescence of labeled mAb [%] | Molecule |
| --- | --- |
| 79 | B1 |
| 94 | B2 |
| 93 | B3 |
| 79 | B4 |
| 86 | B5 |
| 82 | B6 |
| 87 | B7 |
